The results in this text go back to article PMC4289673 (Proteins, 2014).

The data set deals with the molecule itself. The data set can be described thus: crystal structure.

B1: R47A hACMSD (enzyme)
chain: not shown
On to B1, for which the binding result was “binds”.
